Experimental data published in the nanobody polyreactivity screen of Harvey et al. (2022).

Assay: yeast display, Sf9 membrane polyspecificity reagent, FACS + sequencing; frameworks hold sequencing errors
Procedure, shortened: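 Sorting gates, low and high (top ~1%), were placed on anti-HA fluorescence to track expression and on streptavidin fluorescence to track reagent binding. A clone's polyreactivity label is taken from the gate it came out of. The reagent was 10% biotinylated, detergent-solubilized Sf9 membrane, applied for 1 hour at 4 °C to galactose-induced yeast display cells.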

Sequence | polyreactivity (PSR sort gate)
QVQLVESGGGLVQAGGSLSLSCAASGSIFVIYTMGWYRPAPGKERELVAGITWSTGNTYYADSVKGRFTISRDNAKNTFYLQMNSLKPEDTAVYSCAARTTSRWRSGAYYYWGQGTQVTVSS | high polyreactivity
QVQLVESGGGLVQAGGSLRLSCADSGRTIDVYAMGWYRHAPGKEREFVAAISTGASTCYADSVKGRFTISRDNAKNTVYLQMNSLKTEDTGVYYCAKRVTRWYGYWGQGTQVTVSA | high polyreactivity
QVQLVESGGGLVQAGGSLRLSCAASGIIFNRYAMGWYRQAPGKERELVAAITYSGDNTYYADSVKGRFTISRDNAKNTVYLQMNSLKPEDTAVYYCAAVSSRGGDYYWGQGTQVTVSS | high polyreactivity
QVQLVESGGGLVQAGGSLRLSCAASGRTFVVNDMGWYRQAPGKERELVAAINYNAGSTFYADSVKGRFTISRYNAKKTVYYQMNSLKPEDTAVYYCATDVYGYVEYDYWGQGTQVTVSS | low polyreactivity
QVQLVESGGGLVQAGGSLRLSCAASGSTFAVYAMGWYRQAPGKERELVAAITWSGGSTYYADSVKGRFTISRDNAKNTVYFQMNSLKPEDTAVYYCAAAGYYSDMDYWGQGTQVTVSS | low polyreactivity
QVQLVESGGGLDQARGSLRLSCAASGRTFSSNAMGWYRQAPWKERELVAAISSSGAGTYYADSVKGRFTISRDNAKNTVYLQMNSLKPEDTAVYYCAARANSYHSFTSHYDYWGQGTQVTVSS | low polyreactivity
QVQLVESGGGLVQAGGSLRLSCDASGFTFHPYTMGWYRQAPGKERELVASISWGGGSTYYADSVKGRFTISRDNAKNTVYLQMKSLNPEDTAVYYCAKDITYIYYYWGQGSQVTVSS | low polyreactivity
QVQLVESGGGLVQAGGSLRLSSAASGITFDIYDMGWYRQAPGKERELVAAISYSGGSTYYADSVKGRFTISRDNAKNTVYLQMNSLTPEDTAVYDCAAAWYYNSDNEFDYWGQGTQVTVSS | low polyreactivity
QVQLVESGGCLVQAGGSLRLSCAASGLIFRLYAMGWYRQAPGKERELVAAISVSGAITYYADSVKGRFTISRDKAKNTVYLQMNSLKPEDTAVYYCNAEAVFGRDGYVYWEVDYWGQGTQVTVSS | low polyreactivity
QVQLVESGGGLVQAGGSLRLSCAASGFTLAYNAMGWYRQAPGKESELVAAISKSSGSTYYADSVKGRFTISRDNSKNTFYLQMNSLKPEDTAVYYCAAEFYFNGVWYDYWGQGTQVTVSS | high polyreactivity
QVQLVESGGGLVQAGGSLRLICAASGGIFDFYAMGWYRQAPGKERELVAAITRSGSSTFYADSVKGRFTISRDNAKNTVYLQMNSLKPEDTAVYYCAAPYYYFAVYYGYIFEYDYWGQGTQVTVSS | low polyreactivity
QVQLVESGGGLVQAGGSLRLSCAASGSIFTLNAMGWYRQAPGKERELVASISKNGGRTYYADSVKGRFTISRDNAKNTVYLQMNCLKPEDTAVYYCAARYYFTPSDGRRYDYWGQGTQVTVSS | high polyreactivity
QDQLVESGGGLVQAGGSLRLSCAASGSTFTKYAMGWYRQAPGKERELVAAIISYRVGSTYYADSVKGRFTISRDNAKINVYLVMKSLIPEDTAAFYCAAVWKPPGFSTMYYWGQGTEVTVSS | high polyreactivity
QEQLQESGGGLVKAGGSLRLSCAASGNISPRDAMGWYRQAPGEERDLVASNAYSAITYYADGVKGRYTISRDNAKNTVYVQMNSLKPEDTDVYYCEFYQFTYPVFPAYWGQGTQVTVSS | low polyreactivity
QVQLVESGGGLVQAGGSLRLSCAASGNTFYINAMGWYRQAPGKERELVAAINYSGDSTYADSVKGRFTISRDNAKNTVYLQMNSLKPEDSAVYYCAADWYFSVYIDYDTEYDYWGQGTQVTVSS | low polyreactivity
QVQLVESGGGLVQAGGSLRLSCAASGRIFDDNTMGWSRQAPGKERELVAVITSGGSTNYADSVKGRFTISRDNAKNTVYLQMNSLKQEDTAVYYCATEPGGYRFADRPFQYGYWGQGTQVTVSS | low polyreactivity
QVQLVESGGGLVQAGGSLRLSCAASGRTFVYYAMGWYRQAPGKERELVARISYSGGSTYYADSVKGRFTISRDNAKKTVYLQMNSLKPEDTAVYYCSQAGYSPVYGYWGQGTQVSVSS | high polyreactivity
QVQLVESGGGLVQAGGSLRLSCAASGSTFVDNAMGWYRQAPGKERELVAAITNSGSTYYADSVKGRFTISRDNAKNTVYLQMNSHKPEDTAVYYCAARSRVYWARSGYWGQGTQVTVSS | low polyreactivity
QVQLVESGGGIVQAGGSLRLRCAASGSTFNKYAMGWYRQAPGKERELVAAISGGGRTNYADSVKGRFTISRDNAKNTVYLQMNSLKPEDTAVYSCARPSPHKGYDYWGQGTQVTVSS | high polyreactivity
QVQLVESGGGLVQAGGSLRLSCAASGIIFRPYAMGWYRQAPGKERELVAAITGSGVSTYYADSVKGRFTISRDNAKNTVYLQMNSLKPEDTAVYYCAARYDVHYDGMDYWGQGTQVTVSS | low polyreactivity
QVQLVESGGGLVQAGGSLCLSCAASGIFVYNAMGWYRPAPGKEREFVAAINKSGASTFYADSVKGRFTISRDTAKNTVYLQMNSLKPEDTAVYYCRERDYWGQGTQVTVSS | low polyreactivity
QVQLVESGGGLVQAGGSLRLSCAASGFIFWYYAMGWYRQSPGTERELVAGITSGGSTNYADSVKGRFTISRDNAKNTVYLQMNSLKPEDTAVYYCAAAPYGGFGRGYDYWGQGTQVTVSS | high polyreactivity

Sequence | polyreactivity (PSR sort gate)
QVQLVESGGGLVQAGGSLRLSCASSGRTFAGNVMGWYRQAPGKERELVAAITGRGGSTYYADSVKGRFTISRDNAKNTVYLQMNSLKPEDTAVYYCNALTWPRYYYWGQGTQVTVSS | high polyreactivity
QVQLVESVGGLDQAGGSLRLSCAASGFTFQYYAMGWYRQAPGKERELVAAITSNGGGTYYADSVKGRFTISRDNAKNTVYLQMNSLKPEDTAVYYCAADRWYSMDYWGQGTQVTVSS | high polyreactivity
QVQLVESVGGLVQAGGSLRLSCAASGSIFLQNAMGGYRQAPGKERELVAAITNGGSTNYADSVKGRFTISRDNAKNTVYLQMNSLKPEDTAVYYCAAYPLYTGSYDRGGYWGQGTLVTVSS | low polyreactivity
QVQLVESGGGLVQAGGSLRLSCAASGSTFSRYAMGWYRQAPGKERELVAAISRSGGSTYYADSVKGRFTISRDNAKNTVYLQMNSLKPEDTAVYYCAKVTTYVSAWQGNGYWGQGTQVTVSS | high polyreactivity
QVQLVESGGGLVQAGGSLRLNCAASGRIFVGNTMGWDRQAPGKERELVAAITVRGGSTYYADSVKGRFTISRDNAKNTVYLQMNSLKPEDTAVYYCAARRRIFPPRFGYWGQGTQVTVSS | high polyreactivity
QVQLVESGGGLVQAGVSLRLSCAASGRTFSYYVMGWYRQAPGKETELVAAITTRTSSTYYADSVKGRFTISRDNAKNTVYLQMNSLKPEDTAVYYCARRPRARAYNYWGQGTQVTVSS | high polyreactivity
QVQLVESGGGLVQAGGSLRLSCAASGSIFYINTMGWYRQAPGKEREMVATIRTSGGSTYADSVKGRFTISRDNAKNTVYLQMNSLKPEDTAVYYCAVRRYRSSSYGYYSWGQGTQVTVSS | high polyreactivity
QVQLVESGGGLVQGGGSLRLSCAASGLIFYHYAMGWYRQAPGKEREFVAAITVSGGSTSYADSVKGRFTISRDNAKNTVDLQMNSLKPEDNAVYYSADRVNYRSPGVSKGRDYWGQGTQVTVSS | low polyreactivity
QVQLVESWGGIVQAGGSLRLSCAASGSTFHDYAMGWYRQAPGKERELVAAISRRASRTYYADSVKGRFTISRDNAKNTDFLQMNSLKPEDTAVYDCNTDQSQKTVVYDYWGQGTQVTVSS | high polyreactivity
PVQLVESGGGLVQAGGSLRLSCAACGGIFPGNAMGWYRQAPGKVRELVATISYSGGSTYYADSVKGRLTISRDNAKNTVYLQMNSLKPEATAVYYCAARGYKPTRSRRTEYGYWGQGTQVTVSS | high polyreactivity
QVQLEESGGGLVQAGGSLRLSCAASGSTISENTMGWYRQAPGKERELVDAISFSGGSTYYADSVKGRFTISRDIAKNTVFLQMNSLKPEDTAVYYCRRFSSSPKLALGEYDFWGQGTQVTVSS | low polyreactivity
QVQLVESGGGLVQAGGSLRLSCAASGRIIRAYDMGWYRQAPGKERELVAVIRYRGGTTYYADSVKGRFTISRDNAMNTVYLQMYSLKPEDTAVYYCATEDNYHWWYTGVSYGEHDYLGQGTQVTVSS | low polyreactivity
QVQLVESGGGLVQAGGSLRLSCAASGSILYVYAMGWYRQAPGKERELVAAISNRDGSTYYADSVKGRFTISRDNAKNTVYLQMNSLKPEDTAVYYCNADGYGDYSFLKYRFEYDYWGQGTQVTVSS | low polyreactivity
QVQLVESGGGLVQSGGSLRLSCAASGRTFLTYVMGWYRPAPGKERELVAAITRGGRTNYAHSEKGRFTISRDNAKNTVDLQMTSLKPEDTAVYYCARDDTPRYDYWGQGTQVTVSS | low polyreactivity
QVQLVESGGGLVQAGGSLRLTCAASGRIFWSYAMGWYRQAPGKERELVARITTGSSTNYADSVKGRFTISRDNAKNTVYLQMNSLKPEDTAVYYCAADVSNYYFAYYYWGQGTQVTVSS | low polyreactivity
QVQLVESGGGLVQAGCSLRLSSAASGSIFWVNAMGWYRQAPGQERELVAAITWSAGSTYYADSVKGRFTISRDNAKYTVYVEMNSLKPEDTAVYYCAAGGAWYYWTLDYWGLGTQVTVSS | low polyreactivity
QVQLEESGGGLVQEGGSLRLSCSASGRTFRYAMGWYRQAPGKERELVAAISWRGGSTFYADSVKGRFTISRDNAKNTVYLQMNSLKPEDTAVYYCATEFRYHYLSTWSWRYYYWGQGTQVTVSS | low polyreactivity
QVQLVESGGGLVQAGGSLRLSCAASGRIFGLYAMGWYRQAPGKERELVAAISVISTGPYYADSVKGRFTISRDNAMNTVYFQMNSLKPEDTAVYYCNADSVQYTPPESDYWGQGTQVTVSS | low polyreactivity
QVQLVESGGGLVQAGGSLRLSCAASGRIFGYNAMGWYRQAPGKERELVAAIRRSGNTYADSVKGRFTISRDNAKNTVYLQMNSLKPEDTAVYYCAHRVSKRMYYWGQGTQVTVSS | high polyreactivity
QVQLVESGGGLVQAGGSLSLSCAAYGFTFWKYAMGRSRQAPGKESELVAAISVSGGRTYYADSVKGRFTISGDNAKNTVYLQINSLKPEDTASYYVATSFRNGWGSYYYWGQGTQVTVSS | high polyreactivity
QVQLVESGGGLVQAGGSLRLSCAASGSTFGYYAMGWYRQAHGKERELVAAITSGGSTNYADSVKGRFTISRDNAKNTVYLQMNSLKPEDTAVYYCAAADSYRYHLRRYNYWGQGTQVTVSS | low polyreactivity
